# Data as given in PMC2739136.
# T1: MBP-TraR A149E, P33905
# T1 chain: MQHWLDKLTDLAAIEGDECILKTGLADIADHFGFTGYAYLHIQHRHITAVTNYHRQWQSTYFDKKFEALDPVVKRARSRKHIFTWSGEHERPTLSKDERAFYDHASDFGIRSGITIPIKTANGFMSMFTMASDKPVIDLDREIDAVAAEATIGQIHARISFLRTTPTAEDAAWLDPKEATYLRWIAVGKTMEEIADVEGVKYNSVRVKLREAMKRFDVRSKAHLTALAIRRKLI
# T2: MBP-TraR A222S, P33905
# T2 chain: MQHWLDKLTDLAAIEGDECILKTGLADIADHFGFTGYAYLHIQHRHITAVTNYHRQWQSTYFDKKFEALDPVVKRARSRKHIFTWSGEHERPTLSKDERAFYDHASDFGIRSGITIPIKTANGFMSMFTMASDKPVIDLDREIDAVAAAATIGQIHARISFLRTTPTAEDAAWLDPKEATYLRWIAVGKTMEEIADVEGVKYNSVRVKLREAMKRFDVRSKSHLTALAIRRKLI
# T3: MBP-TraR G123R, P33905
# T3 chain: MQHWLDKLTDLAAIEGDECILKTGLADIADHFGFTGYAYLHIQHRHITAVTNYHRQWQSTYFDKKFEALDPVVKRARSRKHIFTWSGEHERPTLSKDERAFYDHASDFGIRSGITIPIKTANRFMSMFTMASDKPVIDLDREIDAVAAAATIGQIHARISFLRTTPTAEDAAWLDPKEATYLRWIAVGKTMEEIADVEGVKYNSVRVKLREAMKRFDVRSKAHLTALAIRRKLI
# T4: MBP-TraR I155F, P33905
# T4 chain: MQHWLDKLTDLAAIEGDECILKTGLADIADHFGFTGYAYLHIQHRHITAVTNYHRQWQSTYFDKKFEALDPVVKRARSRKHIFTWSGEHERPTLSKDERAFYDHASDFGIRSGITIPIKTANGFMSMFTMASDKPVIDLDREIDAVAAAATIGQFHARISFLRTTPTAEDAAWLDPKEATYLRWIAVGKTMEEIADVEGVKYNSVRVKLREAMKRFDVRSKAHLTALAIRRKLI
# T5: MBP-TraR I229Y, P33905
# T5 chain: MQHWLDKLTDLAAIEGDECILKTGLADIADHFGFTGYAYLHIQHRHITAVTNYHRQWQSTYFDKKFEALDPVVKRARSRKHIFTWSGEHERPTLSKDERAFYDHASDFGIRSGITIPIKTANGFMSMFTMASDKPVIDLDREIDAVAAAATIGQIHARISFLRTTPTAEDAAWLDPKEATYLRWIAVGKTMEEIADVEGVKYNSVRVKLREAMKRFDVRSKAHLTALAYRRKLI
# T6: MBP-TraR K119A, P33905
# T6 chain: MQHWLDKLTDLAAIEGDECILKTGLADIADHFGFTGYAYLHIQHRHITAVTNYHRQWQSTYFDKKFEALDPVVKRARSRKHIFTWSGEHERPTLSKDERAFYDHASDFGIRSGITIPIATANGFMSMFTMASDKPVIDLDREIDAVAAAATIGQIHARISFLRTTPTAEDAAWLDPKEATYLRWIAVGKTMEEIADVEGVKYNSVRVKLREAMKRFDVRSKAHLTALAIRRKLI
# T7: MBP-TraR Q154A, P33905
# T7 chain: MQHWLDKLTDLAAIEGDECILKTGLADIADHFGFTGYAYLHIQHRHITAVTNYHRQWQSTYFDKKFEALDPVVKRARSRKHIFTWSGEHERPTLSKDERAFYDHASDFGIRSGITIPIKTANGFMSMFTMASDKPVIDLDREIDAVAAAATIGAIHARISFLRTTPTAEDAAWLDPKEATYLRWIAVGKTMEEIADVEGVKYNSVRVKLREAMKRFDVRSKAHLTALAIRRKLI
# Legend:
# Assay in all cases: pull-down
# MBP-TraR A149E, P33905 = target: T1, MBP-TraR A149E, P33905
# MBP-TraR A222S, P33905 = target: T2, MBP-TraR A222S, P33905
# MBP-TraR G123R, P33905 = target: T3, MBP-TraR G123R, P33905
# MBP-TraR I155F, P33905 = target: T4, MBP-TraR I155F, P33905
# MBP-TraR I229Y, P33905 = target: T5, MBP-TraR I229Y, P33905
# MBP-TraR K119A, P33905 = target: T6, MBP-TraR K119A, P33905
# MBP-TraR N122A, P33905 = target: MBP-TraR N122A, P33905
# MBP-TraR Q154A, P33905 = target: T7, MBP-TraR Q154A, P33905
protein,measurement,setting,value
native TraR (wild type) (protein) MQHWLDKLTDLAAIEGDECILKTGLADIADHFGFTGYAYLHIQHRHITAVTNYHRQWQSTYFDKKFEALDPVVKRARSRKHIFTWSGEHERPTLSKDERAFYDHASDFGIRSGITIPIKTANGFMSMFTMASDKPVIDLDREIDAVAAAATIGQIHARISFLRTTPTAEDAAWLDPKEATYLRWIAVGKTMEEIADVEGVKYNSVRVKLREAMKRFDVRSKAHLTALAIRRKLI,heterodimer formation (% of wild type) (% of wild type),"MBP-TraR A149E, P33905",12
same,heterodimer formation (% of wild type) (% of wild type),"MBP-TraR A222S, P33905",53
same,heterodimer formation (% of wild type) (% of wild type),"MBP-TraR G123R, P33905",49
same,heterodimer formation (% of wild type) (% of wild type),"MBP-TraR I155F, P33905",50
same,heterodimer formation (% of wild type) (% of wild type),"MBP-TraR I229Y, P33905",23
same,heterodimer formation (% of wild type) (% of wild type),"MBP-TraR K119A, P33905",94
same,heterodimer formation (% of wild type) (% of wild type),"MBP-TraR N122A, P33905",28
same,heterodimer formation (% of wild type) (% of wild type),"MBP-TraR Q154A, P33905",27
